From patent publication EP1088069B1

Columns and labels:
Experiment in all cases: cell-based or functional assay
[1] = molecular target: Angiostatin + Binding Domain (yeast two-hybrid bait fusion) (UniProt P00747)
[2] = molecular target: Binding Domain alone
[3] = molecular target: p53 + Binding Domain

UniProt P00747, sequence (P00747 99-459): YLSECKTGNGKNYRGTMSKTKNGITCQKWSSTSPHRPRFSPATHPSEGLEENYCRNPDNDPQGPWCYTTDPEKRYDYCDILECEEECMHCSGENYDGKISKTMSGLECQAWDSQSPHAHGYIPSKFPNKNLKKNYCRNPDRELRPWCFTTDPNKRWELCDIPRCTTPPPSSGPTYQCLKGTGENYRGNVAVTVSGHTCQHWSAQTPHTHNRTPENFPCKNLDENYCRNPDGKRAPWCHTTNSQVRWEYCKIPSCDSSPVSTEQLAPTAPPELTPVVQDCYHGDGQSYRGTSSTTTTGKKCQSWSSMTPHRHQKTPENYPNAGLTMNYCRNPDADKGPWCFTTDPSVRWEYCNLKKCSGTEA

Row | β-Gal Activity [1] | β-Gal Activity [2] | Substance | β-Gal Activity [3]
1 | 15 u | 0.07 u | Big3 - Activation Domain (yeast two-hybrid prey fusion) (from UniProt Q4VCS5 871-1013) | 0.05 u
2 | – | – | SV40LT - Activation Domain (from UniProt P03070 84-708) | 90 u
3 | < 0.04 u | – | Activation Domain alone (from UniProt P04386 768-881) | –
